First the molecules themselves.
T1: human GIPR transiently expressed on 293T cells (human, UniProt P48546 22-466)
T1 sequence: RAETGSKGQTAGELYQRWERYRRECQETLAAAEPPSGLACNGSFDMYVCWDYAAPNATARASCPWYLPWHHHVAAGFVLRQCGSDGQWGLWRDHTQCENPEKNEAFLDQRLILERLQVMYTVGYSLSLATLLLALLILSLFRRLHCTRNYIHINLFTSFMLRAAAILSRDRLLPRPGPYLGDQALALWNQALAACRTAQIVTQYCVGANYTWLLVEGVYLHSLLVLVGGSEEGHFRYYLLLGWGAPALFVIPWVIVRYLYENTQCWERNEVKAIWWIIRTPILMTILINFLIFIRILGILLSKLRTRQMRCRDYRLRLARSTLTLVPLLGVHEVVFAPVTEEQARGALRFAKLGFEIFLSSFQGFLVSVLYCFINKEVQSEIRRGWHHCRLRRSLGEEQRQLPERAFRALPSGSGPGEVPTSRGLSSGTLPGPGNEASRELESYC

T2: Rhesus GIPR (rhesus, UniProt F7E1R9 22-466)
T2 sequence: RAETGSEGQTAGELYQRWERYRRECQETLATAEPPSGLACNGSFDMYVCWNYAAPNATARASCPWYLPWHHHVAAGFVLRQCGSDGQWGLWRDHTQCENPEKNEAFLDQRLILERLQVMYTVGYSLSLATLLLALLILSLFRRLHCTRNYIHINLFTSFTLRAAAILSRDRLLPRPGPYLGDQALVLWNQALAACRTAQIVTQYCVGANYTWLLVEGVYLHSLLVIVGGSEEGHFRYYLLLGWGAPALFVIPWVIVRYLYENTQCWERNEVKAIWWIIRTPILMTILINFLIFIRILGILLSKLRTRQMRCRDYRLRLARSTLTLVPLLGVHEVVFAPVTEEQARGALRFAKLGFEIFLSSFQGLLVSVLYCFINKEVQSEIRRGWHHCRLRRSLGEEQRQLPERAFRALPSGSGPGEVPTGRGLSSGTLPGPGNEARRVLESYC

T3: huGIPR ECD (human, UniProt P48546 22-139, limits assumed)
T3 construct: Soluble ECD injected in the MASS-1 assay; also called human GIPR extracellular domain
T3 sequence: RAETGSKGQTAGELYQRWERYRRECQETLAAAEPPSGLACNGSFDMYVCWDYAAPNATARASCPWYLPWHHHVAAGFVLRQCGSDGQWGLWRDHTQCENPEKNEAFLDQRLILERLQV

B1: 2G10_LC1.006 (antibody, human IgG1, kappa, N297G, V domains shown)
VH: not shown
VL: EIVMTQSPATLSVSPGERATLSCRASQSVSSNLAWYQQKPGQAPRLLIYGAATRATGIPARVSGSGSGTEFTLTISSLQSEDFAVYYCQQYNNWPLTFGGGTKVEIKR
notes: also called iPS:361192; iPS:361194
B2: 6A5.004.009 (antibody, human IgG1, kappa, N297G, V domains shown)
VH: QVQLVESGGGVVQPGRSLRLSCAASGFSFSSYGMHWVRQPPGKGLEWVAAIWYDANNKYYADSVKGRFTISRDSSKNTLYLQMNSLRAEDTAVYYCARDRTIFGVVLEYWGQGTLVTVSS
VL: DIQMTQSPSSLSASVGDRVTITCQASQDITNYLNWYQQKPGKAPKLLIYDASNLEPGVPSRFSGSGSGTDFTLTISSLQPEDFATYYCQQYDDLFTFGPGTKVDIKR
notes: also called iPS:361120; iPS:361122
B3: 2F11.002 (antibody, human IgG1, kappa, N297G, V domains shown)
VH: not shown
VL: DIQMTQSPSSLSASVGDRVTITCQASQDISNYLNWYQQKPGKAPKLLIYDASNLETGVPSRFSGSGSGTDFSLTISSLQPEDFATYYCQQYDILLTFGGGTKVEIKR
B4: 2F11.003 (antibody, human IgG1, kappa, N297G, V domains shown)
VH: QVQLVESGGGVVQPGRSLRLSCAASGFTFSSYGMHWVRQAPGKGLEWVAVIWYDASNKYYADAVKGRFTISSDNSKNTLYLQMNSLRAEDTAVYYCARDRTIFGVVLDYWGQGTLVTVSS
VL: DIQMTQSPSSLSASVGDRVTITCQASQDISNYLNWYQQKPGKAPKLLIYDASNLETGVPSRFSGSGSGTDFSLTISSLQPEDFATYYCQQYDILLTFGGGTKVEIKR
B5: 2F11.009 (antibody, human IgG1, kappa, N297G, V domains shown)
VH: QVQLVESGGGVVQPGRSLRLSCAASGFTFSSYGMHWVRQAPGKGLEWVAVIWYDASNKYYADSVKGRFTISRDNSKNTLYLQMNSLRAEDTAVYYCARDRTIFGVVLDYWGQGTLVTVSS
VL: DIQMTQSPSSLSASVGDRVTITCQASQDISNYLNWYQQKPGKAPKLLIYDASNLETGVPSRFSGSGSGTDFSLTISSLQPEDFATYYCQQYDILLTFGGGTKVEIKR
B6: 2F11.008 (antibody, human IgG1, kappa, N297G, V domains shown)
VH: not shown
VL: DIQMTQSPSSLSASVGDRVTITCQASQDISNYLNWYQQKPGKAPKLLIYDASNLETGVPSRFSGSGSGTDFSFTISSLQPEDIATYYCQQYDILLTFGGGTKVEIKR
B7: 2F11.007 (antibody, human IgG1, kappa, N297G, V domains shown)
VH: QVQLVESGGGVVQPGRSLRLSCAASGFTFSSYGMHWVRQAPGKGLEWVAVIWYDASNKYYADAVKGRFTISSDNSKNTLYLQMNSLRAEDTAVYYCARDRTIFGVVLDYWGQGTLVTVSS
VL: DIQMTQSPSSLSASVGDRVTITCQASQDISNYLNWYQQKPGKAPKLLIYDASNLETGVPSRFSGSGSGTDFSFTISSLQPEDFATYYCQQYDILLTFGGGTKVEIKR
B8: 2F11.005 (antibody, human IgG1, kappa, N297G, V domains shown)
VH: not shown
VL: DIQMTQSPSSLSASVGDRVTITCQASQDISNYLNWYQQKPGKAPKLLIYDASNLETGVPSRFSGSGSGTDFSFTISSLQPEDFATYYCQQYDILLTFGGGTKVEIKR
B9: 2F11.010 (antibody, human IgG1, kappa, N297G, V domains shown)
VH: not shown
VL: DIQMTQSPSSLSASVGDRVTITCQASQDISNYLNWYQQKPGKAPKLLIYDASNLETGVPSRFSGSGSGTDFSLTISSLQPEDFATYYCQQYDILLTFGGGTKVEIKR
B10: 2F11.004 (antibody, human IgG1, kappa, N297G, V domains shown)
VH: not shown
VL: DIQMTQSPSSLSASVGDRVTITCQASQDISNYLNWYQQKPGKAPKLLIYDASNLETGVPSRFSGSGSGTDFSLTISSLQPEDIATYYCQQYDILLTFGGGTKVEIKR
B11: 2F11.006 (antibody, human IgG1, kappa, N297G, V domains shown)
VH: QVQLVESGGGVVQPGRSLRLSCAASGFTFSSYGMHWVRQAPGKGLEWVAVIWYDASNKYYADAVKGRFTISSDNSKNTLYLQMNSLRAEDTAVYYCARDRTIFGVVLDYWGQGTLVTVSS
VL: DIQMTQSPSSLSASVGDRVTITCQASQDISNYLNWYQQKPGKAPKLLIYDASNLETGVPSRFSGSGSGTDFSLTISSLQPEDIATYYCQQYDILLTFGGGTKVEIKR
B12: 17B11.002.006 (antibody, human IgG1, lambda, N297G, V domains shown)
VH: QMQLVQSGAEVKKPGASVKVSCKASGYTFTSYDINWVRQAPGQGLEWMGWMNPNSGNTGYAQKFQGRVTMTRDTSISTAYMELSSLRSDDTAVYYCARGGDYVWGSYRPYYYYYGMDVWGQGTTVTVSS
VL: QSVLTQPPSVSAAPGQKVTISCSGSSSNIGNNYVSWYQQLPGTAPKLLIYDNNKRPSGIPDRFSGSKSGTSATLAITGLQTGDEADYYCGTWDSSLSAVVFGGGTKLTVLG
B13: 17B11.002.007 (antibody, human IgG1, lambda, N297G, V domains shown)
VH: QMQLVQSGAEVKKPGASVKVSCKASGYTFTSYDINWVRQATGQGLEWMGWMNPNSGGTGYAQKFQGRVTMTRDTSISTAYMELSSLRSQDTAVYYCARGGDYVFGSYRPYYYYYGMDVWGQGTTVTVSS
VL: QSVLTQPPSVSAAPGQKVTISCSGSSSNIGNNYVSWYQQLPGTAPKLLIYDNNKRPSGIPDRFSGSKSGTSATLGITGLQTGDEADYYCGTWDSSLSAVVFGGGTKLTVLG
B14: 17B11.002.008 (antibody, human IgG1, lambda, N297G, V domains shown)
VH: QMQLVQSGAEVKKPGASVKVSCKASGYTFTSYDINWVRQAPGQGLEWMGWMNPNSGGTGYAQKFQGRVTMTRDTSISTAYMELSSLRSDDTAVYYCARGGDYVFGSYRPYYYYYGMDVWGQGTTVTVSS
VL: QSVLTQPPSVSAAPGQKVTISCSGSSSNIGNNYVSWYQQLPGTAPKLLIYDNNKRPSGIPDRFSGSKSGTSATLAITGLQTGDEADYYCGTFESSLSAVVFGGGTKLTVLG
B15: 4H9.004.003 (antibody, human IgG1, kappa, N297G, V domains shown)
VH: not shown
VL: DIQMTQSPSSLSASVGDRVTITCRASQGIRNELGWYQQKPGKAPKLLIYGASSLQSGVPSRFSGSGSGTEFTLTISSLQPEDFVTYYCLQHNSYPFTFGQGTKVDVKR
B16: 2A11.003 (antibody, human IgG1, kappa, N297G, V domains shown)
VH: QVQLVESGGGVVQPGRSLRLSCAASGFSFSSYGMHWVRQAPGKGLEWVAVIWYDGSNKYYEDSVKGRFTISRDNSKNTLFLQVNSLRAEDTAVYYCARGITIFGHGFEYWGQGTLVTVSS
VL: EIVLTQSPGTLSLSPGERATLSCRASQIFTSTYLAWYQQKPGQAPRLLIYGASSRATGIPDRFSGSGSGTDFTLTISRLEPEDFAVYYCQQYGSSPRFGQGTRLEIKR
notes: also called iPS:335965; iPS:335967
B17: 2A11.005 (antibody, human IgG1, kappa, N297G, V domains shown)
VH: QVQLVESGGGVVQPGRSLRLSCAASGFSFSSYGMHWVRQAPGKGLEWVAVIWYDASNKYYEDSVKGRFTISRDNSKNTLFLQVNSLRAEDTAVYYCARGITIFGHGFEYWGQGTLVTVSS
VL: EIVLTQSPGTLSLSPGERATLSCRASQIFTSTYLAWYQQKPGQAPRLLIYGASSRATGIPDRFSGSGSGTDFTLTISRLEPEDFAVYYCQQYGSSPRFGQGTRLEIKR
notes: also called iPS:361165; iPS:361167
B18: 2A11.004 (antibody, human IgG1, kappa, N297G, V domains shown)
VH: QVQLVESGGGVVQPGRSLRLSCAASGFSFSSYGMHWVRQAPGKGLEWVAVIWYDGSNKYYEDAVKGRFTISRDNSKNTLFLQVNSLRAEDTAVYYCARGITIFGHGFEYWGQGTLVTVSS
VL: EIVLTQSPGTLSLSPGERATLSCRASQIFTSTYLAWYQQKPGQAPRLLIYGASSRATGIPDRFSGSGSGTDFTLTISRLEPEDFAVYYCQQYGSSPRFGQGTRLEIKR
notes: also called iPS:361158; iPS:361160

The record followed here is patent US20250376529A1 (Amgen, published 2025).

For one assay, the target named is T1, human GIPR transiently expressed on …. As to the kind of experiment: cell-based or functional assay.
As to B1, the “Hu GIPR CAMP Assay (Conc. mAb @ 60% Inhibition in nM)” value amounted to 1.04 nM.

For a further assay, the target named is T2, Rhesus GIPR. As to the kind of experiment: cell-based or functional assay.
As to B2, the “Rhesus GIPR CAMP Assay (Conc. mAb @ 60% Inhibition in nM)” value came to 23.3 nM.

With B3, the “Rhesus GIPR CAMP Assay (Conc. mAb @ 60% Inhibition in nM)” value amounted to 40 nM.

With B4, the “Rhesus GIPR CAMP Assay (Conc. mAb @ 60% Inhibition in nM)” value came to 1.79 nM.

For the molecule B5, the “Rhesus GIPR CAMP Assay (Conc. mAb @ 60% Inhibition in nM)” value was found to be 36.9 nM.

Consider B6, for which the “Rhesus GIPR CAMP Assay (Conc. mAb @ 60% Inhibition in nM)” value amounted to 57.4 nM.

As for B7, the “Rhesus GIPR CAMP Assay (Conc. mAb @ 60% Inhibition in nM)” value is 1.82 nM.

With B8, the “Rhesus GIPR CAMP Assay (Conc. mAb @ 60% Inhibition in nM)” value was determined as 68.6 nM.

Take B9: the “Rhesus GIPR CAMP Assay (Conc. mAb @ 60% Inhibition in nM)” value turned out to be 8.24 nM.

As for B10, the “Rhesus GIPR CAMP Assay (Conc. mAb @ 60% Inhibition in nM)” value was 35.5 nM.

Regarding B11, the “Rhesus GIPR CAMP Assay (Conc. mAb @ 60% Inhibition in nM)” value was determined as 1.3 nM.

With B1, the “Rhesus GIPR CAMP Assay (Conc. mAb @ 60% Inhibition in nM)” value is 0.52 nM.

B12: the “Rhesus GIPR CAMP Assay (Conc. mAb @ 60% Inhibition in nM)” value was found to be 0 nM.

Regarding B13, the “Rhesus GIPR CAMP Assay (Conc. mAb @ 60% Inhibition in nM)” value stood at 0.9 nM.

Consider B14, for which the “Rhesus GIPR CAMP Assay (Conc. mAb @ 60% Inhibition in nM)” value was found to be 7.89 nM.

Consider B15, for which the “Rhesus GIPR CAMP Assay (Conc. mAb @ 60% Inhibition in nM)” value came to 0.5 nM.

The next assay addresses T3, huGIPR ECD. Put plainly: SPR (MASS-1), captured mAb, 200 nM huGIPR ECD.
Method: Binding assays were carried out on the immobilized goat anti-huFc antibody surface by MASS-1. The experiment was performed at 25° C. The instrument running buffer was 0.005% P20/PBS. The goat anti-huFc capture antibody was covalently attached to the sensor chip surface via standard amine coupling to flow cells channel 1-8/A&B. The anti-huGIPR antibodies were diluted in sample buffer (0.1 mg/mL BSA, 0.005% P20, PBS) to 10 nM then captured to flow cells channel B. Channel A was as a blank reference surface without injection of anti-huGIPR antibody. The captured response range of channel B was ˜100-400 RU. Then 200 nM huGIPR ECD was injected over the goat anti-huFc antibody captured anti-huGIPR antibody surfaces at flow rate 25 μL/min for 3 minutes. After a 6 minute dissociation, each surface was regenerated by injecting 10 mM Glycine, pH1.5 for 30 seconds. The sensorgrams were analyzed using MASS-1 software (AnalyserR2, version 0.1.6.5).
B1: the koff turned out to be 0.001 s⁻¹.

In the next assay the target is T3, huGIPR ECD. As to the kind of experiment: SPR (MASS-1), captured mAb.
Regarding B2, the binding result is recorded as “no binding (tested: 200 nM huGIPR ECD)”.

For the molecule B16, the binding result is given as “no binding (tested: 200 nM huGIPR ECD)”.

As to B17, the binding result is listed as “no binding (tested: 200 nM huGIPR ECD)”.

Regarding B18, the binding result is given as “no binding (tested: 200 nM huGIPR ECD)”.
